Entries after “also recorded” stand apart in the source; their conditions may differ.

This assay concerns SARS-CoV-2 (WT, D614G). The class given is cell-based.

B1: B3-WT: Wild type recombinant SerpinB3 (SCCA-1), 44.5 kDa cross-class inhibitor of cysteine proteases including CatL; SEQ ID No. 5 (protein, listed as Homo sapiens)
chain: MNSLSEANTKFMFDLFQQFRKSKENNIFYSPISITSALGMVLLGAKDNTAQQIKKVLHFDQVTENTTGKAATYHVDRSGNVHHQFQKLLTEFNKSTDAYELKIANKLFGEKTYLFLQEYLDAIKKFYQTSVESVDFANAPEESRKKINSWVESQTNEKIKNLIPEGNIGSNTTLVLVNAIYFKGQWEKKFNKEDTKEEKFWPNKNTYKSIQMMRQYTSFHFASLEDVQAKVLEIPYKGKDLSMIVLLPNEIDGLQKLEEKLTAEKLMEWTSLQNMRETRVDLHLPRFKVEESYDLKDTLRTMGMVDIFNGDADLSGMTGSRGLVLSGVLHKAFVEVTEEGAEAAAATAVVGFGSSPTSTNEEFHCNHPFLFFIRQNKTNSILFYGRFSSP
For B1, the “inhibition of SARS-CoV-2 WT (D614G) infection (in words)” value is “reductions in SARS-CoV-2 infection”. Where the note is “50 µM”, the “inhibition of SARS-CoV-2 replication / infection” value stood at 50%.

B2: B3-TMP: SerpinB3 variant with RCL residues 350 to 354 (P4 to P1′) replaced by IQFRV to inhibit TMPRSS2; SEQ ID No. 6 (protein)
chain: MNSLSEANTKFMFDLFQQFRKSKENNIFYSPISITSALGMVLLGAKDNTAQQIKKVLHFDQVTENTTGKAATYHVDRSGNVHHQFQKLLTEFNKSTDAYELKIANKLFGEKTYLFLQEYLDAIKKFYQTSVESVDFANAPEESRKKINSWVESQTNEKIKNLIPEGNIGSNTTLVLVNAIYFKGQWEKKFNKEDTKEEKFWPNKNTYKSIQMMRQYTSFHFASLEDVQAKVLEIPYKGKDLSMIVLLPNEIDGLQKLEEKLTAEKLMEWTSLQNMRETRVDLHLPRFKVEESYDLKDTLRTMGMVDIFNGDADLSGMTGSRGLVLSGVLHKAFVEVTEEGAEAAAATAVIQFRVSPTSTNEEFHCNHPFLFFIRQNKTNSILFYGRFSSP
Consider B2, for which the “inhibition of SARS-CoV-2 WT (D614G) infection (in words)” value is reported as “good dose-dependent downregulation of viral replication; also recorded: greater inhibitor for both viral strains than WT-SerpinB3” and the “inhibition of SARS-CoV-2 replication” value is recorded as “up to 50%”. In addition, for the setting “50 µM”, the “inhibition of viral replication, full time treatment” value is given as 93% and the “viral inhibition, treatment limited to viral entry” value is “up to 70%”.

Source of the values: patent US20240350597A1, “PROTEASE INHIBITORS” (University College Dublin, priority 2023, published 2024).
